Reference: IntAct's records for PubMed 31515488

B1: Uncharacterized protein C12orf50 (Homo sapiens), Q8NA57 (parent)
chain: MEMQQNCSISCFWETQPLGCVKISCIFYHSKPRNINGLFLPPSSNITLQKEIQEGIPLQSQSQEPLKPQENISRPIHHPLVLKTNFEEEEEVDEQNDASSLWTKTPEEIEEKRAIKEMCYKSGEYYRFHTPPDILSSKSMTPTAEKQLEKPLENGSELQEGDSLTVPTKLSQYERQGEIKTSLHGKPKTDIAAFENGGGDCYVPQRVIFLGVDESEALTEEKEITISKCSNTKDNKDSPHPKHSLTTRLVPTTHVLNATENISMKCREDPSSMNDVQPVKKPHFKGVKKRKWIYDEPQNFPNSGMQRAVQAPRPQNKMSYHRNNKNRNAENASYIHVQRDAVRTVALNAPSRSRPTHGSYNKVHANREPKPNLSPDKYTSTSYNDSAWRKRIPFSKTYSKSEKIYPEPRRNGSK
partner: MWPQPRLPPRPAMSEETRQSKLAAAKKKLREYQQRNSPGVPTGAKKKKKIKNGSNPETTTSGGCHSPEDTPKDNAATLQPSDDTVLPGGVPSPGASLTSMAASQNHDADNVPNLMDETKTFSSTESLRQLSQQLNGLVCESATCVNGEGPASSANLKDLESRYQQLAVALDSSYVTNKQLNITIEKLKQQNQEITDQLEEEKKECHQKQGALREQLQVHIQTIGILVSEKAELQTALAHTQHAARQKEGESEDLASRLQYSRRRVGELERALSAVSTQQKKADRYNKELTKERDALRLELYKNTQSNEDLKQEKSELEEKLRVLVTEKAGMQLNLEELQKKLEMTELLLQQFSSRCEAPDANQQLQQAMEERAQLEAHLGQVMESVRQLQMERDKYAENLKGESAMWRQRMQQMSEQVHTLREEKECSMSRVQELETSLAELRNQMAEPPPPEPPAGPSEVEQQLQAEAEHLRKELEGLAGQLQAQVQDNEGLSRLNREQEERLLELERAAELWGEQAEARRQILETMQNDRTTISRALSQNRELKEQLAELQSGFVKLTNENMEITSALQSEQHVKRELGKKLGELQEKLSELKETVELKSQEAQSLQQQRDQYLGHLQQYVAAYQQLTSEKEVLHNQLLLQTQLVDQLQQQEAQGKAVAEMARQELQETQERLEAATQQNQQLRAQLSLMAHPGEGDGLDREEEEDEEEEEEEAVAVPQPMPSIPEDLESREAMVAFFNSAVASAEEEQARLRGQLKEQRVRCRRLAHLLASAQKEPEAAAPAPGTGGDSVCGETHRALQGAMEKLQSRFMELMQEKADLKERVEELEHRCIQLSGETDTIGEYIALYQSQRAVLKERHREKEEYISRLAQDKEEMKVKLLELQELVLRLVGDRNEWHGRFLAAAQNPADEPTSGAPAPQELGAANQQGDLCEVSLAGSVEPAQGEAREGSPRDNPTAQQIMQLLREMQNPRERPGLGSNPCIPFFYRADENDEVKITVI
B2: Tuftelin-interacting protein 11 (Homo sapiens), Q9UBB9 (parent)
chain: MSLSHLYRDGEGRIDDDDDERENFEITDWDLQNEFNPNRQRHWQTKEEATYGVWAERDSDDERPSFGGKRARDYSAPVNFISAGLKKGAAEEAELEDSDDEEKPVKQDDFPKDFGPRKLKTGGNFKPSQKGFAGGTKSFMDFGSWERHTKGIGQKLLQKMGYVPGRGLGKNAQGIINPIEAKQRKGKGAVGAYGSERTTQSMQDFPVVDSEEEAEEEFQKELSQWRKDPSGSKKKPKYSYKTVEELKAKGRISKKLTAPQKELSQVKVIDMTGREQKVYYSYSQISHKHNVPDDGLPLQSQQLPQSGKEAKAPGFALPELEHNLQLLIDLTEQEIIQNDRQLQYERDMVVNLFHELEKMTEVLDHEERVISNLSKVLEMVEECERRMQPDCSNPLTLDECARIFETLQDKYYEEYRMSDRVDLAVAIVYPLMKEYFKEWDPLKDCTYGTEIISKWKSLLENDQLLSHGGQDLSADAFHRLIWEVWMPFVRNIVTQWQPRNCDPMVDFLDSWVHIIPVWILDNILDQLIFPKLQKEVENWNPLTDTVPIHSWIHPWLPLMQARLEPLYSPIRSKLSSALQKWHPSDSSAKLILQPWKDVFTPGSWEAFMVKNIVPKLGMCLGELVINPHQQHMDAFYWVIDWEGMISVSSLVGLLEKHFFPKWLQVLCSWLSNSPNYEEITKWYLGWKSMFSDQVLAHPSVKDKFNEALDIMNRAVSSNVGAYMQPGARENIAYLTHTERRKDFQYEAMQERREAENMAQRGIGVAASSVPMNFKDLIETKAEEHNIVFMPVIGKRHEGKQLYTFGRIVIYIDRGVVFVQGEKTWVPTSLQSLIDMAK
partner: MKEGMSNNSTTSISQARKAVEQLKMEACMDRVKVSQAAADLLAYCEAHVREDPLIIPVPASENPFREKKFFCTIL
B3: Probable RNA-binding protein EIF1AD (Homo sapiens), Q8N9N8 (parent)
chain: MSQATKRKHVVKEVLGEHIVPSDQQQIVRVLRTPGNNLHEVETAQGQRFLVSMPSKYRKNIWIKRGDFLIVDPIEEGEKVKAEISFVLCKDHVRSLQKEGFWPEAFSEVAEKHNNRNRQTQPELPAEPQLSGEESSSEDDSDLFVNTNRRQYHESEEESEEEEAA
partner: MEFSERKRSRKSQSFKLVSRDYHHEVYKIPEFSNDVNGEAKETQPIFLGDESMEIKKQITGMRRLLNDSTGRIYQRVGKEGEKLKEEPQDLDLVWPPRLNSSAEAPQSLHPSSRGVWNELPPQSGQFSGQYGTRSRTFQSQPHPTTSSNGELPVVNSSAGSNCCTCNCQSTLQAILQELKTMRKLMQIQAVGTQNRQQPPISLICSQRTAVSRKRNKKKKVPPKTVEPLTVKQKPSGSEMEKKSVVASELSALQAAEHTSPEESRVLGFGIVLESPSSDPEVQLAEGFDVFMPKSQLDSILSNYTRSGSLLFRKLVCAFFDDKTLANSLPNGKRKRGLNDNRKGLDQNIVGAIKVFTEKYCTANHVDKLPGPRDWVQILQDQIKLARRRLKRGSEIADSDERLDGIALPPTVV
B4: Proteasome subunit beta type-1 (Homo sapiens), P20618 (parent)
chain: MLSSTAMYSAPGRDLGMEPHRAAGPLQLRFSPYVFNGGTILAIAGEDFAIVASDTRLSEGFSIHTRDSPKCYKLTDKTVIGCSGFHGDCLTLTKIIEARLKMYKHSNNKAMTTGAIAAMLSTILYSRRFFPYYVYNIIGGLDEEGKGAVYSFDPVGSYQRDSFKAGGSASAMLQPLLDNQVGFKNMQNVEHVPLSLDRAMRLVKDVFISAAERDVYTGDALRICIVTKEGIREETVSLRKD
partner: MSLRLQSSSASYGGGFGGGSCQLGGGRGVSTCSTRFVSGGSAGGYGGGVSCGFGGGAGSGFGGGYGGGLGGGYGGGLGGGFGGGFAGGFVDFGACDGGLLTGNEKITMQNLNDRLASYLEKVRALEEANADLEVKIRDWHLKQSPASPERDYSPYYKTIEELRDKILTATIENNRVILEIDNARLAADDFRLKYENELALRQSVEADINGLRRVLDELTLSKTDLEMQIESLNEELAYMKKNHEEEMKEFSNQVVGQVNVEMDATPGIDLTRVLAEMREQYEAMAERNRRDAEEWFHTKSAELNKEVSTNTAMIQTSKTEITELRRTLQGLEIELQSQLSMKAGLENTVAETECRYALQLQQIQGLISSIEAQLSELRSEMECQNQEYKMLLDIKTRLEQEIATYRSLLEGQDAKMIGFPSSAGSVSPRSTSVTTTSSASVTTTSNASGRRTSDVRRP
B5: FXYD domain-containing ion transport regulator 3 (Homo sapiens), Q14802 (parent)
chain: MQKVTLGLLVFLAGFPVLDANDLEDKNSPFYYDWHSLQVGGLICAGVLCAMGIIIVMSAKCKCKFGQKSGHHPGETPPLITPGSAQS
partner: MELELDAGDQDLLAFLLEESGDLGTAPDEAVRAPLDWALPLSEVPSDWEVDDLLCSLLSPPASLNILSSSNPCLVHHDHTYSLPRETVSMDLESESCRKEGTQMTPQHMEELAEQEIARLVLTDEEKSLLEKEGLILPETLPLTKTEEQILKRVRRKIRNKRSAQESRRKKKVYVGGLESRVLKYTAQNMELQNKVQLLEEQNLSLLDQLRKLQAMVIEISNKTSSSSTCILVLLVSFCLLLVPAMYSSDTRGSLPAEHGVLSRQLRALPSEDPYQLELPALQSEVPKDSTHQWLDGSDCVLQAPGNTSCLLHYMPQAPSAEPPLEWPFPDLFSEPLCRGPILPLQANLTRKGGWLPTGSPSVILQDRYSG
B6: Protein FAM9B (Homo sapiens), Q8IZU0 (parent)
chain: MAAWGKKHAGKDPVRDECEERNRFTETREEDVTDEHGEREPFAETDEHTGANTKKPEDTAEDLTAKRKRMKMDKTCSKTKNKSKHALRKKQLKRQKRDYIHSLKLLNVLEEYITDEQKEEEEEEGEEEELIRIFQEQQKKWQQYRSVRRERLKEMKLLRDQFVKALEDFEDLCDRVFSDEDSELDN
partner: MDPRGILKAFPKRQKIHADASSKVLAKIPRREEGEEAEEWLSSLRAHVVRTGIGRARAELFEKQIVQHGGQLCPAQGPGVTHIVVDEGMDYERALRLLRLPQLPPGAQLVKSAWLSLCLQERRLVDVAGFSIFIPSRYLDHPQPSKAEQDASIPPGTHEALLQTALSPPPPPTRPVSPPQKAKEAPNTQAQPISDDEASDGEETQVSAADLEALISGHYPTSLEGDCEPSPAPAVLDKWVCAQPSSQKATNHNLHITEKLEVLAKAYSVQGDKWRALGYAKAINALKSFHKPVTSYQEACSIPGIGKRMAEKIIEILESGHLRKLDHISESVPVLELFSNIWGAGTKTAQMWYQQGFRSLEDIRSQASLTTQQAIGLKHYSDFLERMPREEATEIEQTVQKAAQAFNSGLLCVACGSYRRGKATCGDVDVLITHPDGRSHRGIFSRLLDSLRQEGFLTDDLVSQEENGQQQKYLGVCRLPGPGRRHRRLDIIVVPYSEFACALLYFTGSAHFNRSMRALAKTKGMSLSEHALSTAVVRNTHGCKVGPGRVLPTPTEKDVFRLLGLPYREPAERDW
B7: Transmembrane 4 L6 family member 4 (Homo sapiens), P48230 (parent)
chain: MCTGGCARCLGGTLIPLAFFGFLANILLFFPGGKVIDDNDHLSQEIWFFGGILGSGVLMIFPALVFLGLKNNDCCGCCGNEGCGKRFAMFTSTIFAVVGFLGAGYSFIISAISINKGPKCLMANSTWGYPFHDGDYLNDEALWNKCREPLNVVPWNLTLFSILLVVGGIQMVLCAIQVVNGLLGTLCGDCQCCGCCGGDGPV
partner: B5 partner
B8: Cysteine-rich C-terminal protein 1 (Homo sapiens), Q9UGL9 (parent)
chain: MSSQQSAVSAKGFSKGSSQGPAPCPAPAPTPAPASSSSCCGSGRGCCGDSGCCGSSSTSCCCFPRRRRRQRSSGCCCCGGGSQRSQRSNNRSSGCCSGC
B9: Aflatoxin B1 aldehyde reductase member 2 (Homo sapiens), O43488 (parent)
chain: MLSAASRVVSRAAVHCALRSPPPEARALAMSRPPPPRVASVLGTMEMGRRMDAPASAAAVRAFLERGHTELDTAFMYSDGQSETILGGLGLGLGGGDCRVKIATKANPWDGKSLKPDSVRSQLETSLKRLQCPQVDLFYLHAPDHGTPVEETLHACQRLHQEGKFVELGLSNYASWEVAEICTLCKSNGWILPTVYQGMYNATTRQVETELFPCLRHFGLRFYAYNPLAGGLLTGKYKYEDKDGKQPVGRFFGNSWAETYRNRFWKEHHFEAIALVEKALQAAYGASAPSVTSAALRWMYHHSQLQGAHGDAVILGMSSLEQLEQNLAATEEGPLEPAVVDAFNQAWHLVAHECPNYFR

Variants of: B1
Settings: with goga2_human GOLGA2, Q08379

Variant	effect of a mutation on the interaction
Y334C	with no effect

Variants of: B2
Settings: with gbg4_human GNG4, P50150

Variant	effect of a mutation on the interaction
S688L	with no effect
R8Q	with no effect

Variants of: B3
Settings: with bend7_human BEND7, Q8N7W2

Variant	effect of a mutation on the interaction
R48C	with no effect

Variants of: B4
Settings: with KRT13, P13646

Variant	effect of a mutation on the interaction
P11A	with no effect

Variants of: B5
Settings: with creb3_human CREB3, O43889

Variant	effect of a mutation on the interaction
G40S	disrupting interaction strength

Variants of: B6
Settings: with dpoll_human POLL

Variant	effect of a mutation on the interaction
R23H	with no effect

Variants of: B7
Settings: with creb3_human CREB3, O43889

Variant	effect of a mutation on the interaction
A63V	with no effect

Variants of: B8
Settings: with nt2na_human NOTCH2NLA

Variant	effect of a mutation on the interaction
G20S	with no effect

Variants of: B9
Settings: with ark73_human AKR7A3, O95154
ark73_human AKR7A3, O95154, sequence (O95154 whole entry): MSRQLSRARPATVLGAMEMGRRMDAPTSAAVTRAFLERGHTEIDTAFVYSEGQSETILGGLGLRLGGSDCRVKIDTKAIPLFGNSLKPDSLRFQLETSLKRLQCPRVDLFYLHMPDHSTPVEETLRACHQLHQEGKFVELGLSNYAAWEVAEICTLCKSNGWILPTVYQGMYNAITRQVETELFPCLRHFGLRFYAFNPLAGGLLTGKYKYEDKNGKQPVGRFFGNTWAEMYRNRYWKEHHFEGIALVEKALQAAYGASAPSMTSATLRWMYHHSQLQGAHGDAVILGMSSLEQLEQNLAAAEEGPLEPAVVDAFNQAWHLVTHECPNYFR

Variant	effect of a mutation on the interaction
A142T	disrupting interaction strength

Variants of: B9
Settings: with cep70_human CEP70, Q8NHQ1
cep70_human CEP70, Q8NHQ1, sequence (Q8NHQ1 whole entry): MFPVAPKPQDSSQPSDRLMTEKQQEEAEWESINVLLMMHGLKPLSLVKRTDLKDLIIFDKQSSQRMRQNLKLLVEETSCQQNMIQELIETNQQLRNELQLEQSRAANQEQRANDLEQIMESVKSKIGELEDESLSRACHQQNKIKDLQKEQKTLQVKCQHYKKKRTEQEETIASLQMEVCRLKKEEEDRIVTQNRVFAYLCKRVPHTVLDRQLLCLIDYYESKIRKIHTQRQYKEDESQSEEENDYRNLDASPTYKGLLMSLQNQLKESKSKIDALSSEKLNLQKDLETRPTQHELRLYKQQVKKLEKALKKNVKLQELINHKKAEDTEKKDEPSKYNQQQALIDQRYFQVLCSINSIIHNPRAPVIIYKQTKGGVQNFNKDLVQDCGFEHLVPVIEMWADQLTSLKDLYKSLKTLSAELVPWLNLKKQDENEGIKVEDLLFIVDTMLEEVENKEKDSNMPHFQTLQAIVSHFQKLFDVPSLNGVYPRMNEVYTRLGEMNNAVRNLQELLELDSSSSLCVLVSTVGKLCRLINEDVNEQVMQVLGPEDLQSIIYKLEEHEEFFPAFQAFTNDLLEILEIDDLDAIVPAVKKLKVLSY

Variant	effect of a mutation on the interaction
A142T	disrupting interaction strength
